# T1: Tbar-aLhr2 WT (Thermococcus barophilus, UniProt F0LJX3 1-863)
# T1 sequence: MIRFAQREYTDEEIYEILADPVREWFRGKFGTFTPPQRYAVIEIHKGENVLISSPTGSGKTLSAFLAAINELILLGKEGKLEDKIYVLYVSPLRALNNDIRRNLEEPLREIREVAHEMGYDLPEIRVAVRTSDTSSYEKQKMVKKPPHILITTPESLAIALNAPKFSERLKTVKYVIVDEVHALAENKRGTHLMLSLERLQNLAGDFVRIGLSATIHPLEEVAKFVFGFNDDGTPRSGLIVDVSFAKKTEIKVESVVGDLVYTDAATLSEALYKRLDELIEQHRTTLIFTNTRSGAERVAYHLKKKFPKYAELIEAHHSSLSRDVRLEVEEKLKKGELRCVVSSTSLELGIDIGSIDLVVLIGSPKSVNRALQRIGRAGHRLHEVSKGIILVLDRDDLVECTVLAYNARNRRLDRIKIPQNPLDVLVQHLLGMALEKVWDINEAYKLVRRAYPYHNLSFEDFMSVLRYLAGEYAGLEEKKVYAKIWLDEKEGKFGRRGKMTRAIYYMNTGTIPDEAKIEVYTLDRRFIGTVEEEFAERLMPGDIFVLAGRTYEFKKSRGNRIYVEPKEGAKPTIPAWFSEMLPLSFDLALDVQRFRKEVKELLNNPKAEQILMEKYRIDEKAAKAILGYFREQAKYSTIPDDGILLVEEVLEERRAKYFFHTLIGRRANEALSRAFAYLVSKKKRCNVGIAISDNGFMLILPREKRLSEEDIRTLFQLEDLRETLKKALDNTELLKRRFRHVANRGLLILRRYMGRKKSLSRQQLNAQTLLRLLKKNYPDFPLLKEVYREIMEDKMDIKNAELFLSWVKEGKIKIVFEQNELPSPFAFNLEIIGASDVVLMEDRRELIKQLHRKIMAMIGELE
# T2: Tbar-aLhr2-Dom4 (Thermococcus barophilus, UniProt F0LJX3 514-863)
# T2 sequence: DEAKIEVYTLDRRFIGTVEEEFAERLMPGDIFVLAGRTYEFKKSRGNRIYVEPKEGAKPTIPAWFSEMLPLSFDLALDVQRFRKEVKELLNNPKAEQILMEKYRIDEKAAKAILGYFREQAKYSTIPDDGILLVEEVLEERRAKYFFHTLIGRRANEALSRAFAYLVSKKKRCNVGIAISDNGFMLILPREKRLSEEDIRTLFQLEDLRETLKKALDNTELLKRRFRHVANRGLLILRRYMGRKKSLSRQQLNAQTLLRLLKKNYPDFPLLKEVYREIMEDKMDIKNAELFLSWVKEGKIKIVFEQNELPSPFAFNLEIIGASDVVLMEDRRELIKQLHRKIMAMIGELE
# T3: Paby-Hel308 (Pyrococcus abyssi, UniProt Q9V0A9 1-715)
# T3 sequence: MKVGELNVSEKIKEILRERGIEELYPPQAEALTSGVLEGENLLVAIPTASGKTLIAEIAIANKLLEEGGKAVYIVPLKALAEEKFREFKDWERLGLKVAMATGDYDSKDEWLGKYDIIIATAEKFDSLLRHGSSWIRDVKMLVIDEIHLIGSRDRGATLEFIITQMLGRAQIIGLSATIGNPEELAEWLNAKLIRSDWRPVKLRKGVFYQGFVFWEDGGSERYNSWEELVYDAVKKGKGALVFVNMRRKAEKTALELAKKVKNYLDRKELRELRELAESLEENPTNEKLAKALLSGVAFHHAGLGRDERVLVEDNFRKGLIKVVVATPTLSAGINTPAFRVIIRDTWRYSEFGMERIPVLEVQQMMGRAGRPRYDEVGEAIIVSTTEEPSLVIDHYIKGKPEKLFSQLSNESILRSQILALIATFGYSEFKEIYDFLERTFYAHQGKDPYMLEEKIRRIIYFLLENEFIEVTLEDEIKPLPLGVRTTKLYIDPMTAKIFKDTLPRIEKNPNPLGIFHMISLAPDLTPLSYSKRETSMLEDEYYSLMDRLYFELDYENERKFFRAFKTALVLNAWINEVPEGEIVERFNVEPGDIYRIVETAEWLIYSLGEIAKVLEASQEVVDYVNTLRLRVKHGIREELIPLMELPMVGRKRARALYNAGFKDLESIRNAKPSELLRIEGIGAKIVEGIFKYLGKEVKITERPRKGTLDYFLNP
# T4: Tbar-aLhr2-ΔDom4 (Thermococcus barophilus, UniProt F0LJX3 1-513)
# T4 sequence: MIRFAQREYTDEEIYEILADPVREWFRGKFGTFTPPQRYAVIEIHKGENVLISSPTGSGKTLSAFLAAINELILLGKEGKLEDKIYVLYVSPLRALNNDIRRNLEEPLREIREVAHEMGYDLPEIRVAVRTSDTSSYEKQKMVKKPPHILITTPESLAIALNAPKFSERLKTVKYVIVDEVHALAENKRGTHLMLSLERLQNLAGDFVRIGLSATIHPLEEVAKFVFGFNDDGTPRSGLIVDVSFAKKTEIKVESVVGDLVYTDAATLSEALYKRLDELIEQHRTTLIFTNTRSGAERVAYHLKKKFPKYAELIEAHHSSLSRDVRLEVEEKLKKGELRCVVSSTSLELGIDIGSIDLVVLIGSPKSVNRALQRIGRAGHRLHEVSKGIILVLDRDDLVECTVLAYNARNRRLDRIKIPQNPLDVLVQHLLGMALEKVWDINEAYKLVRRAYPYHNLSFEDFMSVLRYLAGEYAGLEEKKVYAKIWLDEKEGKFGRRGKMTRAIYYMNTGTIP
# B1: 3'DNA59:DNA31 (dsDNA)
# DNA 1: GACGCTGCCGAATTCTACCAGTGCCTTGCTAGGACATCTTTGCCCACCTGCAGGTTCAC
# DNA 2: TAGCAAGGCACTGGTAGAATTCGGCAGCGTC
# B2: 3'RNA50:RNA26 (dsRNA)
# RNA 1: AUCGAUAGUCUCUAGACAGCAUGUCCUAGCAAGCCAGAAUUCGGCAGCGU
# RNA 2: GGACAUGCUGUCUAGAGACUAUCGAU
# Columns and labels:
# Assay in all cases: filter binding; 5 mM Mg2+; 25 mM Tris-HCl pH 8, 50 mM NaAc, 5 mM MgCl2, 2.5 mM beta-mercaptoethanol; protein preincubated 10 min 65 C, binding 15 min 30 C; 0.5 nM substrate (Methods); Resu
# Tbar-aLhr2 WT = biological target: T1, Tbar-aLhr2 WT; settings: protein: recombinant, tags: untagged, chain copies: 4
# Tbar-aLhr2-Dom4 = biological target: T2, Tbar-aLhr2-Dom4; settings: protein: recombinant; tags: untagged; label: 5'-32P; single strand
# Paby-Hel308 = biological target: T3, Paby-Hel308; settings: protein: recombinant, tags: untagged
# Tbar-aLhr2-ΔDom4 = biological target: T4, Tbar-aLhr2-ΔDom4; settings: protein: recombinant; tags: untagged; label: 5'-32P; single strand
# [1] = label: 5'-32P on DNA31, 3' overhang 28 nt
Binder,"Kd (Tbar-aLhr2 WT; label: 5'-32P, single strand) [nM]",Kd (Tbar-aLhr2-Dom4) [nM],"Kd (Paby-Hel308; label: 5'-32P, single strand) [nM]",Kd (Tbar-aLhr2-ΔDom4) [nM],Kd (Tbar-aLhr2 WT; [1]) [nM],Kd (Paby-Hel308; [1]) [nM],"Kd (Tbar-aLhr2 WT; label: 5'-32P on RNA26, 3' overhang 24 nt) [nM]"
ATCGATAGTCTCTAGACAGCATGTCCTAGCAAGCCAGAATTCGGCAGCGT (ssDNA) [DNA50],39 ± 1,162 ± 5,32 ± 2,54 ± 1,,,
AUCGAUAGUCUCUAGACAGCAUGUCCUAGCAAGCCAGAAUUCGGCAGCGU (ssRNA) [RNA50],41 ± 1,161 ± 5,38 ± 1,69 ± 1,,,
ACGCUGCCGAAUUCUGGCUUGCUAGG (ssRNA) [RNA26],80 ± 2,241 ± 17,,150 ± 1,,,
B1,,,,,41 ± 2,23 ± 1,
B2,,,,,,,39 ± 2
GGACATGCTGTCTAGAGACTATCGAT (ssDNA) [DNA26],58 ± 2,277 ± 16,,211 ± 9,,,
